Assay results: US20130108682A1, “WOUND CARE PRODUCT COMPRISING A CATHELICIDIN POLYPEPTIDE” (LIPOPEPTIDE AB, priority 2007, published 2013)

Assay: Release of LL-37 from coated polyurethane (PU) foam, quantified by ELISA
Type: physicochemical
Conditions: for % LL-37 released in solution: PU foam, data not shown
Procedure: LL-37 dissolved in PBS or ethanol was absorbed onto PU foam at a concentration of 25 μg LL-37/cm^2. A 1×1 cm piece of each preparation was cut, placed into a glass vial containing 3 ml PBS, and incubated under agitation for 24 h. At various time points (10, 20, 45, 120 min, and 24 h), 100 μl samples were collected and the amount of LL-37 released in solution was evaluated by ELISA. Results are expressed as the % LL-37 released in solution.
LL-37 was dissolved in ethanol or in PBS and 1 ml suspension was dropped onto 2×2 cm pieces of polyurethane (PU) foam (Brightwake, Kirkby-in-Ashfield, United Kingdom). The samples were allowed to dry at room temperature (RT) until no further weight loss could be recorded. Unless otherwise noted, a LL-37 solution at 100 μg/ml was used, resulting in a concentration of 25 μg LL-37/cm^2.
LL-37 was also mixed with various excipients before being applied onto the 2×2 cm PU foams. LL-37 dissolved in PBS was added to dry galactolipid and the resulting dispersion was vigorously shaken for 1 h. The galactolipid concentration was 0.2% (w/w). LL-37 dissolved in water was added to a preformed gel consisting of 25% poloxamer (Lutrol F127) in water. The resulting mixtures of about 1 g were heated at about 60° C. for about 10 min to evaporate the alcohol. The formulations were then applied with a spatula on 2×2 cm pieces of PU. In case the formulation contained water, PU foams were dried at RT for at least 24 h.
To release LL-37 from coated PU foam, 1×1 cm samples were cut and weighed in order to calculate the amount of LL-37 present in each sample. Each PU foam sample was placed into a 15 ml glass vial containing 3 ml PBS and incubated at RT for the indicated time period with constant shaking of 6 rpm. At various time intervals (10, 20, 45, 120 min, and 24 h), 100 μl release sample was removed for analysis and replaced with 100 μl fresh PBS. Release samples were stored at 4° C. until analysis, usually for 24 h.
The release was calculated as the total amount of LL-37 in the release liquid divided by the amount of loaded LL-37 in the sample.
LL-37 was detected and quantified using an enzyme-linked immunosorbent assay (ELISA) based on the protocol developed by Lindgreen and colleagues (Lindgreen 2004). Medium binding capacity 96-well plates (Greiner Bio-one, Frickenhausen Germany) were coated with […] rabbit IgG anti-LL-37 antibodies (Agrisera, Vännäs, Sweden) in 200 μl coating buffer (0.1M bicarbonate buffer, pH 9.0) for 18 to 24 h at 2-8° C. […] Reaction was stopped by addition of 50 μl 1 M sulfuric acid and absorbance immediately read at 450 nm (OD450 nm) using a VERSAmax microplate reader equipped with SoftMax Pro software for analysis (Molecular Devices).

LLGDFFRKSKEKIGKEFKRIVQRIKDFLRNLVPRTES [LL-37]
% LL-37 released in solution (maximum) (PU foam with 25 μg LL-37, peptide formulated in PBS or in ethanol, 3 ml PBS, shaking, after 24 h incubation): 30%
% LL-37 released in solution (LL-37 formulated in galactolipid (ethanol or PBS solutions)): No detectable
% LL-37 released in solution (LL-37 formulated in poloxamer (Lutrol)): 1%
LL-37 concentration in release sample as determined by ELISA (release sample from PU foam where LL-37 in PBS has been absorbed, used in second chemotaxis experiment): 4,500 ng/ml
